Earlier results as cited in paper PMC8894612.

Target: Regnase-1 (UniProt Q5D1E7)
Test: Biacore SPR

Chain of UniProt Q5D1E7 (Q5D1E7 whole entry): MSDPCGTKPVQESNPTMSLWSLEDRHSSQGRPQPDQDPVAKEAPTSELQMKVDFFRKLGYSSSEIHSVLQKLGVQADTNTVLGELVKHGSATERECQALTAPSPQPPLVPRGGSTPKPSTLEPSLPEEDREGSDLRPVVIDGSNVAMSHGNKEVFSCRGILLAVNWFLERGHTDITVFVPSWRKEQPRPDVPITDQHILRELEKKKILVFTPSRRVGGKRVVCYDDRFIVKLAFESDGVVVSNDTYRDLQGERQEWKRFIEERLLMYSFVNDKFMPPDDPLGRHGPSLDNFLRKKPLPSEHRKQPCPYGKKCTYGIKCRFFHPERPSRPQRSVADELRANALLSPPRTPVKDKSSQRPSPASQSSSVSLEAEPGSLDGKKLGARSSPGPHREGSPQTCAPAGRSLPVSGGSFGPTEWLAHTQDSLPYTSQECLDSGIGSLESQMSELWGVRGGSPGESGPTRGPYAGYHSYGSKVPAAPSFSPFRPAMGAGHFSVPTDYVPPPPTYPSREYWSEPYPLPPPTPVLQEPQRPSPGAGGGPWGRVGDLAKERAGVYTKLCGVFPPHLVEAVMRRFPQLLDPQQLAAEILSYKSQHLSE

## Roquin-1 (from UniProt Q4VGL6)
  Kd: 417 nM
